# Measured values reported in the DeepSol protein solubility set.
# Test: soluble on expression in E. coli; label from the status in PepcDB or PDB records
row,Sequence,soluble on expression in E. coli
1,MASKDKEINNTIDAIEDKNFKQVYKDSSYISKSDNGEVEMTERPIKIYNSLGVKDINIQDRKIKKVSKNKKRVDAQYKIKTNYGNIDRNVQFNFVKEDGMWKLDWDHSVIIPGMQKDQSIHIENLKSERGKILDRNNVELANTGTAYEIGIVPKNVSKKDYKAIAKELSISEDYIKQQMDQNWVQDDTFVPLKTVKKMDEYLSDFAKKFHLTTNETESRNYPLEKATSHLLGYVGPINSEELKQKEYKGYKDDAVIGKKGLEKLYDKKLQHEDGYRVTIVDDNSNTIAHTLIEKKKKDGKDIQLTIDAKVQKSIYNNMKNDYGSGTAIHPQTGELLALVSTPSYDVYPFMYGMSNEEYNKLTEDKKEPLLNKFQITTSPGSTQKILTAMIGLNNKTLDDKTSYKIDGKGWQKDKSWGGYNVTRYEVVNGNIDLKQAIESSDNIFFARVALELGSKKFEKGMKKLGVGEDIPSDYPFYNAQISNKNLDNEILLADSGYGQGEILINPVQILSIYSALENNGNINAPHLLKDTKNKVWKKNIISKENINLLTDGMQQVVNKTHKEDIYRSYANLIGKSGTAELKMKQGETGRQIGWFISYDKDNPNMMMAINVKDVQDKGMASYNAKISGKVYDELYENGNKKYDIDE,soluble
2,MTRLSSGAKLNHPESSVCSPVYSWSTCIRKTSPVLFSSTIFALRRMTAPSAPCAQAPQLTRRWAKIVVENRTGSHFKIQVLHEYTGEQTNDSGYIDFKPDDRITVFEKIYYNTGFFTTGVDNWKVHGTKLIQVETEGTIARNIFGKFFVDGLPYSTGHGAFAKWKKHTLRADDDGQETVIKVFQTEVQFISPSGRSVTTFNTLGENILPFSQNPQKQ,not soluble
3,MSGEEKEKVKILHVANISTSATRDHIYNMFNYLGKIQDLKVYPSEGNITANTLLKTAFIKFDDERCVEVAQHLTNTVVIDCAIVCLPYPNPVIPDEESFFNSGGSTTAGQRQLPPHVTNKIQESDDGSALLITVDPTLEQLGLPAYPPLPADTDSAKVEEIRRTVYVGNLPKGVDGNEVLELFNMYFGEVMYARMASGPDALPCAYAYVEFSQQASVCNALQNDGFEFKERPLKIQHSRVAIIKPQAKTDEQALGEIEEAIRMGRNGDDRDRRRSRSPRRRRSPSPRRRRDSRDRDRDRDRDRRRSRDRRSRSRDRDRDRDRKRSRSRDRKRRSRSRDNKDRDRKRSRSRDRRRRSKSRDRKRERSRSRSKDRKRDKKRSRSRSPEKRRDKEDRKTEKKENENESSLREKLLEKKAARKDSSDDEWEEKPTPTNGEVKNEEIGNGDVVMASE,soluble
4,MGSDKIHHHHHHMKALVVGACTRPVVNSLKKLNFEVYSVSHYNPVDLNADHKKYTINDKFHGHLADKYSEKELLNLSKEYVDLVDYIFVCSGIFESKTSKTPNWDVVGNSPKRIKNISDKYKTVKKLENLGFNVPVTYLVNNKYQFEKCLSELKSVVVKPISGSGGIGVTNIDFQNTDNLDINYPVLVQERIKSESYSASFIGSNFLCFNKQLINNNIYVGNISPYVLNLKNETIQEFEEVIASLDLLGMNGIDFMLKDGIPYIIEVNPRILGTYETIELSSRYNLSKAILENKPVKPKDCFFKKIVFSDKGSSYSIDKNPFLRDIPQKGTYIEEGEPVVTIIGRNMADVREMECGILRGV,not soluble
5,MKTLLSLGHGYSAQALAHRLLPQGWTVIGTTRSAAKAAELEAGGIEPLLWPGDLGPALARASHILASAAPGREGDPFLATHGAELARADARWVGYLSTTGVYGDHAGGWVDEDTPLTPSTERGQARVQAERQWQALGLPLHIFRLAGIYGPGRGPFEKVRDGTARRIVKPGQVFSRIHVADIAQVLEASMQHPEPGAIYNVCDDDPAPPEDVLGYAAELLGLPPPPEVPYDEAEMTPMARSFYAESKRVRNDRIKARLGIALLHPDYRSGLRSLLAGGD,not soluble
6,MTTSQMIADFTTLAIQAGGWMELDRLYLQNRLLSMIGEQELGEVDIRPVATPAADLAEQLCQVASANQLVKTEQQKEQFMVQLMDLLTPPPSVVNAFFAQHYAKEPQEATEYFYQLCQKNGTVIEQEEPVVFSTVYGDFLANKVHSEASKATLSAQSYPRCEWCMATEGYQGSQQFPATTNHRVIRMNLDGESWGFSFVKQAQYQQQGVIAFEKHQSAKRSIKTFQQLLKIVEVFPHYFAGIDADFEQNEHVYYQTGLQQFPLAEASISEYVELANYPLINAGMVNWPVETFRLEGPNASEVAQAANDIFEQWQMLKLPTDEIQIVARRKELLYVMDLIFSRPQAKPSLTLAEVQGLTTWNNQKTQALETVASAYQQRLKEASAFAETSEGKAAFLAMVAPVTH,not soluble
7,METIKIGVVGLGTVGTGVVKMLQAHQEKISEITGRKLELACVVVHNLKKHEQVDLGDVQMTDQIATLLDDPSIQIMVEVMGSIHPAKEYITQALQAGKHVVTANKDLIAQYGRELVQIARENHRDLFYEASVAGGIPILRTIDNSFAADRIQRVMGIVNGTTNYIMTQM,not soluble
8,MGSDKIHHHHHHMDFYQVIKTRTSTKKFKNTPIAAPKLDNMLNAAMMSPSWKNKTSYSFVIVDDERKKDAIANFIINSDEDAKNSVKDAPMVVAIVGDTTESGHINGKEYYLVDSAIAMEHFVLAAANEGYGTCWIASFDEKRMKDELRIPDKYSVVAITPVGEVGESKAHYEPKDIENHIYRNYWSMPYSEKKHLVMK,not soluble
9,MAHHHHHHMILLQLTVVGYLNTGKTSLINSIMNNEIFTNYSHTPLPMIYYKVHKDKNRAFCVEIEDTSVDVDINNFTNMMRKEITTNSKNMKNPVFSYFENPCIPFQAHDPYNSISYGRMAYFLVFDLTNPSTFEYVKMIYLNMSSIYEKYYTLKPFISLVGNKSDLADENCALVREAENFSNEHMVQLWLTSAYTGKNVKKLFLHTINMVYNNTNLWKYDIEESGSESSES,not soluble
10,MGSDKIHHHHHHMKRRILFIHNNLGGGGAEGALIEVLNHLDYNRYDVTLFLLYRTGDFIDRVPPQVHFKHEQFGRFFPGYKGKIAIRCGLRNMLLRCCAKRVFANEKYDTIVSFMESAPAKFHSYILDKGKRNITWVHCDLLNNHYTTGFFLTLKQEQKFYSRMDDVIFVSEDAKKNFSKLFGIDKGRVIYNIIDQRAICKRSKAVSSMPRHRTFTFVNVGSLKEIKRQDRIIETAALLKARGYDADFWLIGKGIWEERLKAQATALNVSDSVHFLGFQSNPYPYVAAADVFLMTSDSEGFPLVVAEAMCLGKAVISTRITGPMEMLGNGRYGILTGFSPEEIANSAISLIEDPKLLSSYQHLAYERSISYFDVNGVMTQIHDVIGN,not soluble
11,MPSNPQQSSRATPDRPSGSDESVIVERIYKAVMEQRLAPKTKLSEARLCETFGVGRMRVRRALLLLSSQGIIELQSNRGAYVACPDTAEANEVFAARMLIEPPLVRQLAQSSGNIDLTILTEHIALEDAARERKERTEIIRLSGEFHTKLAQATGNKFIFRMMRELVTRTSLIVGLFGSSENASCPDDEHNNILKAIQSQDPEMAETLLISHLNHIQNGLDMDMRQVPQDDLAAILGSD,not soluble
12,MGHHHHHHSHLRHKEPGSGSGGGVYWVDSQQKRYVPVKGDHVIGIVTAKSGDIFKVDVGGSEPASLSYLSFEGATKRNRPNVQAISSRL,not soluble
13,MGSDKIHHHHHHMSKLFDCITDELQDFIAAQHLFFVGSAPLSPTGHVNLSPKGLGCFRVLSPKQVGYVDLTGSGNETSAHLQENGRITFMFCAFEEPACILRLYGQGNTILPSSPDWDSLYSLFLPMPGTRQIIVADIEKVQTSCGFGVPLYEYQGQRQTLVNWASKKGEEGVREYQQKKNLVSIDGLPTPLSKLS,not soluble
14,MSLRDYRYSDAHVHYVDFFQESEGMPRLLEAMDKGRVDHVMLSGVAVAKKWHKDEPKRPRYYAGDDAGAYWYSATDVIVAAAVKSLPAEQRRRVHPFLTGFNPTDKNADAHIRRMLELDPGLWQGIGEIFTRHDDLTALTYGDVPRANNEALARVYHLAAEFDLPVLLHANVTSKRERNPLYLAEIEEPLRNHPHVRFIWAHAGTSMEIHRHQKKLDFLLPTLRRLLQRYPNLYIDLSWSVLRPYLLDEQGKPDPQWLALVERFPQRFMLGSDVVGQFDSLPELMASFDPFLDALPEQVARQVARDNFLAVLPREGHHHHHH,soluble
15,MGSDKIHHHHHHMNERRLLLTGGWILSMDPAVGDLRQGDILIEGDRIAAVAPRIEAPEAQRIDAAGMIVLPGFVDTHRHTWQSCVRHRYADIDPQIYFAEMLGATGAAFRPDDVYIGTLLGAVSALDSGITTMLDWSHVQNSPEHADAAVLGLRDAGIRGIFAHGWPLVEGASWMFDSQRGHPEDIRRLRERYFSSDDQLLTLAMAARGPEMACREVWLRDLRLARELGIRSSIHMGAYARNGTARGIAQMHEAGVLGDDLTFVHCCCSGEDEIAMMADAGVSASLGVHCELNAQGIGDLPLDRMLAVGIRPSLSGDTETKCSGDMFTQMRHAFAYYRSWMGGNHSRVANAPATLSMRDVLEFATVAGARANGLDHKVGSLTPGKQADIVMIRGDDLNLAPVSDAVGAVVLAAHPGNVDTVFVAGRTVKRHGRMTGVDVDMLRHRAAASQHYVLGLR,not soluble
16,MAMSKVKSITRESWILSTFPEWGSWLNEEIEQEQVAPGTFAMWWLGCTGIWLKSEGGTNVCVDFWCGTGKQSHGNPLMKQGHQMQRMAGVKKLQPNLRTTPFVLDPFAIRQIDAVLATHDHNDHIDVNVAAAVMQNCADDVPFIGPKTCVDLWIGWGVPKERCIVVKPGDVVKVKDIEIHALDAFDRTALITLPADQKAAGVLPDGMDDRAVNYLFKTPGGSLYHSGDSHYSNYYAKHGNEHQIDVALGSYGENPRGITDKMTSADMLRMGEALNAKVVIPFHHDIWSNFQADPQEIRVLWEIKKDRLKYGFKPFIWQVGGKFTWPLDKDNFEYHYPRGFDDCFTIEPDLPFKSFL,not soluble
17,MIGNILVAHGMRKGNQNEALEEFIGTLLKDEQYYYELAFLESETQNLEIIMEKMIKQGITKFRIVPLLIFSAMHYISDIPQILKEMKARYPQIDSKMSAPLGTHPYMKTLVENRIAEEKVSEGSTKATIVIAHGNGSGRFTKAHDELKAFVKTLDSHHPVYARALYGTLAFKNDLDKISEQYDELVIVPLFLFDGRLVNKVKRLLGEMTLHSQLHITPSINFDPILRLIIRERLEALDILEHHHHHH,soluble
18,MTPSVAQNTKYVNLFIGTSGDNGQVAPGAAAPFGMVCVCPDNDPRSHAGYDYAVTKVSGISVNRLSGVGCSGGGGNLRIRPVAPSQELHIKKSREKATPGYYSTAFTNGIKTELTATNAMAVERYKFPRSLSAALWIDFASTFEDVATCHYKRISETCIEGYVQAKNVCGHGCYKLYFSLNTSQPLEHHHHHH,not soluble
19,MGSDKIHHHHHHMKTQQERQPGKIATKFNQEKTREGKKLKIAVVAQDSQYPSTIQRFLAEADKSYPLISLIGGVQQVAAVAEQEQPDLLMLEGQYFSSMELETLNRVTSRFPDVGVVMLCPAQPPELLIEVMRAGVREVLPTPLTRHGVIDAVERFQQRIALSRMPMHECKVLAFIPCKGGSGATFLATNIAYALAAQENKRVALFDFNLQFGDASLFVQDGPPATSIADVARQIQRLDGSFLNSSMIQVLPNFGMLAAPESPEKAAEIRSEHINPLFQVAMKHYDFVILDVGRELDAISIQALDRADLIFPVLQQTLPSIRDARRMSAAFAALNYPDEKIRLIVNRYKKNADITLDDIESTLNLKIFKVVPNDYAVVTGSVNQGIPATKLAPRSPVAKSLQEIAHELCRGAGQGNLLRKLFAF,not soluble
20,MGSDKIHHHHHHMFLKENSVDDFDKQLDDLFKTTKTSRISELSEALGVSPTTIRTWRGRNKIPASAFRKAELSIQNDSDVKTDTRISLSFYEISASAGGGALVEVEEQANLISFEPEWLNKEIGVNANDVFLMLVDGDSMYPTLKNGAMIMVNKHFNGLSDGIYVMRHEQNLLVKRLQMLPNGIIKVKSDNNLYEPWEINKENLDGTDIEIIGRVVWSGQRM,not soluble
